The values that follow come from IntAct's records for PubMed 21526221.

B1: SWI5-dependent HO expression protein 3 (Saccharomyces cerevisiae), P38272 (parent)
chain: MSDQDNTQTSSSKLAPHHNIFMANLESSPTKDRNTSSQNASSSRVIESLHDQIDMLTKTNLQLTTQSQNLLSKLELAQSKESKLLENLNLLKNENENLNSIFERKNKKLKELEKDYSELSNRYNEQKEKMDQLSKLAKNSSAIEQSCSEKLQNMEVNYNSLLESQNLYRDHYSDEISKLNEKIGLLELELSNQNLNYGSDTSSNSDIELNLNKFNDSVKDLKSLETEKDSKLSKIITHSLDELNLQSWLNLYQTNENLISTFAEKMDLKDVLKRNDEKISNKGAVVQTLKKNVQTQVESNNADALSSNNAQDMLPIKMVKLRKTPNTNDSSSNGNSSNNKRRSFYTASPLLSSGSIPKSASPVLPGVKRTASVRKPSSSSSKTNVTHNNDPSTSPTISVPPGVTRTVSSTHKKKGNSMVVHGAQS

This assay covers variants of B1. The note with it: with she2_yeast SHE2, P36068.
Chain of she2_yeast SHE2, P36068 (P36068 whole entry): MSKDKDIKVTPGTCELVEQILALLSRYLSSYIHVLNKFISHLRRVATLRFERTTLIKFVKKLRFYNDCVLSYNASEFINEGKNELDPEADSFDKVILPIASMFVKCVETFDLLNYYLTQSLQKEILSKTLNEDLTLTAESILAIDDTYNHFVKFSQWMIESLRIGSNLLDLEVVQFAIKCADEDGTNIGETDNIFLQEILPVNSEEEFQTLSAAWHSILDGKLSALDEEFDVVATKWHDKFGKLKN
As for MSDQDNTQTSSSKLAPHHNIFMANLESSPTKDRNTSSQNASSSRVIESLHDQIDMLTKTNLQLTTQSQNLLSKLELAQSKESKLLENLNLLKNENENLNSIFERKNKKLKELEKDYSELSNRYNEQKEKMDQLSKLAKNSSAIEQSCSEKLQNMEVNYNSLLESQNLYRDHYSDEISKLNEKIGLLELELSNQNLNYGSDTSSNSDIELNLNKFNDSVKDLKSLETEKDSKLSKIITHSLDELNLQSWLNLYQTNENLISTFAEKMDLKDVLKRNDEKISNKGAVVQTLKKNVQTQVESNNADALSSNNAQDMLPIKMVKLRKTPNTNDSSSNGNSSNNKRRSFYTASPLLSSGSIPKSASPVAPGAKRTASVRKPSSSSSKTNVTHNNDPSTSPTISVPPGVTRTVSSTHKKKGNSMVVHGAQS [L364A;V367A], the “effect of a mutation on the interaction” value was “disrupting interaction”.
